Source: paper PMC3241668

Target: Daedalus-expressed CARMA-CARD (N-terminal CARD domain of human CARMA1, Asp2-Thr104) (human)
Experiment: SEC

stoichiometry N: 2
Substance: Daedalus-expressed CARMA-CARD (N-terminal CARD domain of human CARMA1, Asp2-Thr104) (domain or fragment)
